The data set deals with the molecule itself. Briefly: native gel or EMSA. A general note: A gel shift assay detects complexes by their altered migration in electrophoresis.

B1: Rpp20, protein subunit of human nuclear RNase P (natural protein, UniProt O75817 1-140, looked up)
chain: MAENREPRGAVEAELDPVEYTLRKRLPSRLPRRPNDIYVNMKTDFKAQLARCQKLLDGGARGQNACSEIYIHGLGLAINRAINIALQLQAGSFGSLQVAANTSTVELVDELEPETDTREPLTRIRNNSAIHIRVFRVTPK
B1: the binding result is “binds”.

Source of the values: PMC3141246 (Nucleic Acids Research, 2011).
